Test results as given in US20170283834A1, “Processes for Producing A Fermentation Product Using A Fermenting Organism” (Novozymes A/S, priority 2014, published 2017).
Changes are numbered by the printed parent chain. Numbers in names are those of the source.

Tested on: zein
Experiment: Relative activity assay of protease variants (zein micro titer plate)
Format: biochemical
Conditions: for Relative activity 65° C./60° C.: Table 2
Procedure: Each well contains 200 microL of 0.05-0.1% of zein (Sigma), 0.25 mM ZnSO4 and 1% of agar in 20 mM sodium acetate buffer, pH 4.5.
Yeast clones on SC-glucose were inoculated to a well of a 96-well micro titre plate containing YPD+Zn medium and cultivated at 28° C. for 3 days. The culture supernatants were applied to a 96-well zein micro titer plate and incubated at at least 2 temperatures (ex. 60° C. and 65° C., 70° C. and 75° C., 70° C. and 80° C.) for more than 4 hours or overnight. The turbidity of zein in the plate was measured as A630 and the relative activity (higher/lower temperatures) was determined as an indicator of thermoactivity improvement. The clones with higher relative activity than the parental variant were selected and the sequence was determined.

B1: JTP054: protease variant of SEQ ID NO: 3: ΔS5/D79L/S87P (protein, listed as Thermoascus aurantiacus)
chain: MRLVASLTALVALSVPVFPAAVNVKRASSYLEITLSQVSNTLIKAVVQNTGSDELSFVHLNFFKDPAPVKKVSVYRDGSEVQFEGILSRYKSTGLSRDAFTYLAPGESVEDVFDIASTYDLTSGGPVTIRTEGVVPYATANSTDIAGYISYSSNVLTIDVDGAAAATVSKAITPLDRRTRISCSGSRQSALTTALRNAASLANAAADAAQSGSASKFSEYFKTTSSSTRQTVAARLRAVAREASSSSSGATTYYCLDPYGYCSPNVLAYTLPSYNIIANCDIFYTYLPALTSTCHAQDQATTALHEFTHAPGVYSPGTDDLAYGYQAAMGLSSSQAVMNADTYALYANAIYLGC
Table 3
  Relative activity 75° C./70° C.: 92%

B2: JTP055: protease variant of SEQ ID NO: 3: ΔG8/D79L/S87P (protein, listed as Thermoascus aurantiacus)
chain: B1 chain with C183S, S184C, G185S
Table 3
  Relative activity 75° C./70° C.: 95%

B3: JTP005: protease variant of SEQ ID NO: 3: A112P (protein, listed as Thermoascus aurantiacus)
chain: MRLVASLTALVALSVPVFPAAVNVKRASSYLEITLSQVSNTLIKAVVQNTGSDELSFVHLNFFKDPAPVKKVSVYRDGSEVQFEGILSRYKSTGLSRDAFTYLAPGESVEDVFDIASTYDLTSGGPVTIRTEGVVPYATANSTDIAGYISYSSNVLTIDVDGAAAATVSKAITPLDRRTRISSCSGSRQSALTTALRNAASLANAAADAAQSGSASKFSEYFKTTSSSTRQTVAARLRAVAREASSSSSGATTYYCDDPYGYCSSNVLAYTLPSYNIIANCDIFYTYLPPLTSTCHAQDQATTALHEFTHAPGVYSPGTDDLAYGYQAAMGLSSSQAVMNADTYALYANAIYLGC
  Relative activity 65° C./60° C.: 43%

B4: JTP013: protease variant of SEQ ID NO: 3: D79L/S87P/A112P (protein, listed as Thermoascus aurantiacus)
chain: B3 chain with D257L, S265P
  Relative activity 65° C./60° C.: 90%

B5: JTP051: protease variant of SEQ ID NO: 3: S41R/D79L/S87P/A112P/D142L (protein, listed as Thermoascus aurantiacus)
chain: B3 chain with S219R, D257L, S265P, D320L
Table 3
  Relative activity 75° C./70° C.: 102%

B6: JTP046: protease variant of SEQ ID NO: 3: D79L/S87P/Q158W (protein, listed as Thermoascus aurantiacus)
chain: B3 chain with D257L, S265P, P290A, Q336W
Table 3
  Relative activity 75° C./65° C.: 96%

B7: JTP009: protease variant of SEQ ID NO: 3: D79K (protein, listed as Thermoascus aurantiacus)
chain: B3 chain with D257K, P290A
  Relative activity 65° C./60° C.: 69%

B8: JTP040: protease variant of SEQ ID NO: 3: T54R/D79L/S87P (protein, listed as Thermoascus aurantiacus)
chain: B3 chain with T232R, D257L, S265P, P290A
Table 3
  Relative activity 75° C./65° C.: 71%

B9: JTP042: protease variant of SEQ ID NO: 3: Q53K/D79L/S87P/I173V (protein, listed as Thermoascus aurantiacus)
chain: B3 chain with Q231K, D257L, S265P, P290A, I351V
Table 3
  Relative activity 75° C./65° C.: 108%

B10: JTP047: protease variant of SEQ ID NO: 3: D79L/S87P/S157K (protein, listed as Thermoascus aurantiacus)
chain: B3 chain with D257L, S265P, P290A, S335K
Table 3
  Relative activity 75° C./65° C.: 85%

B11: JTP061: protease variant of SEQ ID NO: 3: T46R/D79L/S87P (protein, listed as Thermoascus aurantiacus)
chain: B3 chain with T224R, D257L, S265P, P290A
Table 3
  Relative activity 75° C./70° C.: 111%

B12: JTP043: protease variant of SEQ ID NO: 3: Q53R/D79L/S87P (protein, listed as Thermoascus aurantiacus)
chain: B3 chain with Q231R, D257L, S265P, P290A
Table 3
  Relative activity 75° C./65° C.: 80%

B13: JTP004: protease variant of SEQ ID NO: 3: S87P (protein, listed as Thermoascus aurantiacus)
chain: B3 chain with S265P, P290A
  Relative activity 65° C./60° C.: 45%

B14: JTP069: protease variant of SEQ ID NO: 3: D79L/S87P/S115R (protein, listed as Thermoascus aurantiacus)
chain: B3 chain with D257L, S265P, P290A, S293R
Table 3
  Relative activity 75° C./70° C.: 103%

B15: JTP048: protease variant of SEQ ID NO: 3: D79L/S87P/D104R (protein, listed as Thermoascus aurantiacus)
chain: B3 chain with D257L, S265P, D282R, P290A
Table 3
  Relative activity 75° C./65° C.: 88%

B16: JTP014: protease variant of SEQ ID NO: 3: D79L/S87P/A112P (protein, listed as Thermoascus aurantiacus)
chain: B3 chain with D257L, S265P
  Relative activity 65° C./60° C.: 88%

B17: JTP063: protease variant of SEQ ID NO: 3: S49R/D79L/S87P (protein, listed as Thermoascus aurantiacus)
chain: B3 chain with S227R, D257L, S265P, P290A
Table 3
  Relative activity 75° C./70° C.: 94%

B18: JTP053: protease variant of SEQ ID NO: 3: S41R/D79L/S87P/A112P/D142L/S157K (protein, listed as Thermoascus aurantiacus)
chain: B3 chain with S219R, D257L, S265P, D320L, S335K
Table 3
  Relative activity 75° C./70° C.: 113%

B19: JTP064: protease variant of SEQ ID NO: 3: D79L/S87P/N88R (protein, listed as Thermoascus aurantiacus)
chain: B3 chain with D257L, S265P, N266R, P290A
Table 3
  Relative activity 75° C./70° C.: 92%

B20: JTP068: protease variant of SEQ ID NO: 3: D79L/S87P/T114P (protein, listed as Thermoascus aurantiacus)
chain: B3 chain with D257L, S265P, P290A, T292P
Table 3
  Relative activity 75° C./70° C.: 99%

B21: JTP011: protease variant of SEQ ID NO: 3: D79M (protein, listed as Thermoascus aurantiacus)
chain: B3 chain with D257M, P290A
  Relative activity 65° C./60° C.: 73%

B22: JTP045: protease variant of SEQ ID NO: 3: S41R/D79L/S87P (protein, listed as Thermoascus aurantiacus)
chain: B3 chain with S219R, D257L, S265P, P290A
Table 3
  Relative activity 75° C./65° C.: 82%

B23: JTP010: protease variant of SEQ ID NO: 3: D79L (protein, listed as Thermoascus aurantiacus)
chain: B3 chain with D257L, P290A
  Relative activity 65° C./60° C.: 75%

B24: JTP071: protease variant of SEQ ID NO: 3: D79L/S87P/T116V (protein, listed as Thermoascus aurantiacus)
chain: B3 chain with D257L, S265P, P290A, T294V
Table 3
  Relative activity 75° C./70° C.: 105%

B25: JTP016: protease variant of SEQ ID NO: 3: A73C (protein, listed as Thermoascus aurantiacus)
chain: B3 chain with A251C, P290A
  Relative activity 65° C./60° C.: 52%

B26: JTP008: protease variant of SEQ ID NO: 3: R2P (protein, listed as Thermoascus aurantiacus)
chain: B3 chain with R180P, P290A
  Relative activity 65° C./60° C.: 71%

B27: JTP052: protease variant of SEQ ID NO: 3: D79L/S87P/A112P/D142L/S157K (protein, listed as Thermoascus aurantiacus)
chain: B3 chain with D257L, S265P, D320L, S335K
Table 3
  Relative activity 75° C./70° C.: 111%

B28: JTP036: protease variant of SEQ ID NO: 3: D79L/S87P/D142L (protein, listed as Thermoascus aurantiacus)
chain: B3 chain with D257L, S265P, P290A, D320L
Table 3
  Relative activity 70° C./65° C.: 73%
  Relative activity 75° C./65° C.: 73%

B29: JTP019: protease variant of SEQ ID NO: 3: A126V (protein, listed as Thermoascus aurantiacus)
chain: B3 chain with P290A, A304V
  Relative activity 65° C./60° C.: 69%

B30: JTP021: protease variant of SEQ ID NO: 3: M152R (protein, listed as Thermoascus aurantiacus)
chain: B3 chain with P290A, M330R
  Relative activity 65° C./60° C.: 59%

B31: JTP012: protease variant of SEQ ID NO: 3: D79L/S87P (protein, listed as Thermoascus aurantiacus)
chain: B3 chain with D257L, S265P, P290A
  Relative activity 65° C./60° C.: 86%

B32: JTP059: protease variant of SEQ ID NO: 3: C6R/D79L/S87P (protein, listed as Thermoascus aurantiacus)
chain: B3 chain with C184R, D257L, S265P, P290A
Table 3
  Relative activity 75° C./70° C.: 92%
